Assay results taken from patent KR20230010676A.

Biological target: SARS-CoV-2 스파이크 D19 (VSV 슈도바이러스) (SARS-CoV-2) (UniProt P0DTC2)
Experiment: cell-based or functional assay

S2E12-LS (antibody)
EC50 (neutralisation, interpolated): 1.4 ng/mL | EC90 (neutralisation, interpolated): 11.9 ng/mL | IC50 (neutralisation): 1.4 ng/mL
